Assay results published in US9809653B2, “Anti-LAMP1 antibodies and antibody drug conjugates, and uses thereof” (SANOFI, priority 2012, dated 2017).
Positions count from the first letter of the chain named.

Assays:
[1] = biological target: T1, LAMP1 expressed on the surface of advanced human primary colon tumor CR-IGR-034P (Homo sapiens, UniProt P11279); assay: Apparent affinity to human primary colon tumor PDX by flow cytometry; type: binding; details: dissociated PDX tumor cells, 45 min at 4° C., read-out: EC50 obtained with CR-IGR-034P
T1 construct: endogenous in cells; host or cells: enzymatically dissociated patient-derived xenograft tumour cells (e.g. CR-IGR-034P, LUN-NIC-014P, BRE-IGR-0159) and tumour cell lines
T1 sequence (P11279 29-417): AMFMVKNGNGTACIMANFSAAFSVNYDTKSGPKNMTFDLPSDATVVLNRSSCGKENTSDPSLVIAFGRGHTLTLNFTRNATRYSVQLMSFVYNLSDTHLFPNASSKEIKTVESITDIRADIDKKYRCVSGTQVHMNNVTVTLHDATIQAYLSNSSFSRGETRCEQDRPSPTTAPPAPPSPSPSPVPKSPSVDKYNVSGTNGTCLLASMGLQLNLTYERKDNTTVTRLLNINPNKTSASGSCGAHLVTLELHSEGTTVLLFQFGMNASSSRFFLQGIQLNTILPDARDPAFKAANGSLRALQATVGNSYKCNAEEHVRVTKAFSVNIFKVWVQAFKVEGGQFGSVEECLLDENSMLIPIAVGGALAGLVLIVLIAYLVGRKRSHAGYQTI
Description: Advanced human primary colon tumor CR-IGR-034P was obtained from Patient-derived xenograft in mice. Tumor CR-IGR-034P was enzymatically dissociated using collagenase Type IV (Invitrogen; #17104-019) and deoxyribonuclease I (Invitrogen; #18047-019) for 1 h at 4° C. Cell viability was estimated by Viacount application using Guava® easyCyte™ 8HT Flow Cytometry System. […] 100 μL/well of goat anti-mouse IgG conjugated with Alexa647 (Invitrogen; #A2135) or goat anti-human IgG conjugated with Alexa488 (Invitrogen; #A11013) was added for 45 min at 4° C. and washed three times with PBS 1% BSA. The antibody binding was evaluated after centrifugation and resuspension of cells by adding 200 μl/well PBS 1% BSA and read using Guava® easyCyte™ 8HT Flow Cytometry System. EC50 values were estimated using BIOST@T-SPEED software. EC50 values obtained with the advanced human primary colon tumor CR-IGR-034P are listet in Table 3.

[2] = biological target: T2, Hybrid LAMP1 / glycan-deleted LAMP1 transmembrane proteins (Homo sapiens, UniProt P11279, A93T/T85V/V91T); assay: Binding onto membrane-anchored hybrid or mutated LAMP1 proteins (293-F cells) by flow cytometry; design: species or system human/mouse; details: pXL6017 LAMP1_mseq5_ΔGYQTI; Table 18
T2 construct: expressed in transfected cells; host or cells: 293-F (HEK293-derived), transient transfection
T2 sequence (P11279 with tags, fused parts or gaps T85V/V91T/A93T): T1 sequence (P11279 29-417) with T57V, V63T, A65T, G385A, Y386A, Q387A, T388A, I389A
Description: (§1) Different LAMP1 proteins were expressed at the cell membrane of HEK293 cells after transient expression from mammalian plasmids encoding the entire coding sequence of LAMP1 deleted of the intracellular lysosome-targeting motif GYQTI and substituted by a 5-Ala repeat sequence.
(§2) Two days post transfection cells were processed, analyzed by flow cytometry (Guava® easyCyte™ 8HT) as mentioned in example 4.7, and the mean fluorescence was recorded. This fluorescence represents a semi-quantitative assessment of binding.

[3] = biological target: T3, Hybrid LAMP1 / glycan-deleted LAMP1 transmembrane proteins (Mus musculus, UniProt P11438, K100R/L93T/T102A/Y92H); assay: as above; design: species or system human/mouse; details: pXL6047 mLAMP1_hseq6_ΔGYQTI
T3 construct: expressed in transfected cells; host or cells: 293-F (HEK293-derived), transient transfection
T3 sequence (P11438 with tags, fused parts or gaps Y92H/L93T/K100R/T102A): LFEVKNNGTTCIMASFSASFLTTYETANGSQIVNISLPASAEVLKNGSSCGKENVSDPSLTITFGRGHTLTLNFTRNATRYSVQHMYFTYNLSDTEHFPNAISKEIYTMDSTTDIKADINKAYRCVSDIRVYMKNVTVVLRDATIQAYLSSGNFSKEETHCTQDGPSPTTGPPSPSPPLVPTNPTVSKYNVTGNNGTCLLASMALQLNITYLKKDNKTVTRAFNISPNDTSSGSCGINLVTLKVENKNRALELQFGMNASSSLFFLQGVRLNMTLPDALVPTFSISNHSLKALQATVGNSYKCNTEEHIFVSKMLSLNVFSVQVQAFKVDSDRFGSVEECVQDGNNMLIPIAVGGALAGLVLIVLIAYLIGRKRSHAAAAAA
Description: as §1, §2

[4] = biological target: T4, Hybrid LAMP1 / glycan-deleted LAMP1 transmembrane proteins (Homo sapiens, UniProt P11279, A49S/D55E/N45S/N53T/S51L/V52T); assay: as above; design: species or system human/mouse; details: pXL6013 LAMP1_mseq2_ΔGYQTI; Table 18
T4 construct: expressed in transfected cells; host or cells: 293-F (HEK293-derived), transient transfection
T4 sequence (P11279 with tags, fused parts or gaps N45S/A49S/S51L/V52T/N53T/D55E): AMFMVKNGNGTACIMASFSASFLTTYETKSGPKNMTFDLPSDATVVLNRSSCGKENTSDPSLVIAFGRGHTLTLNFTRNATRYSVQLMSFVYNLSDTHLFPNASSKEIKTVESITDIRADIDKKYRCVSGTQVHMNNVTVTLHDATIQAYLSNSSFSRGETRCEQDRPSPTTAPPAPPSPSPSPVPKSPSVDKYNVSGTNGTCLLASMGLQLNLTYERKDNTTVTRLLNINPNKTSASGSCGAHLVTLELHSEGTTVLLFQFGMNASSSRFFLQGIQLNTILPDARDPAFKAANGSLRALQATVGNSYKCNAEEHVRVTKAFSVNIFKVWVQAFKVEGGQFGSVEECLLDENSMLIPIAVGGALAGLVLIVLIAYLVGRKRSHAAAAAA
Description: as §1, §2

B1: MAb1: murine monoclonal anti-LAMP1 antibody, VH SEQ ID NO: 1, VL SEQ ID NO: 5 (antibody, V domains shown)
VH: QVQLQQSGAELVKPGASVKMSCKASGYIFTNYNIHWVKKSPGQGLEWIGAIYPGNGDAPYSQKFKDKATLTADKSSSTTYMQLSRLTSEDSAVYYCVRANWDVAFAYWGQGTLVSVSA
VL: DIQMTQSPPSLSASLGGKVTITCKASQDIDRYMAWYQDKPGKGPRLLIHDTSTLQPGIPSRFSGSGSGRDYSFSISNLEPEDIATYYCLQYDNLWTFGGGTKLEIK
modifications: Antibody Fragment; antibody fragment
**Q.** Which results are given for B1?
**A.** EC50 [1]: 5 nM; Binding call [2]: Binding; Mean fluorescence [2]: 846; Binding call ([3]; Table 17 Experiment no1): No binding; Mean fluorescence ([3]; Table 17 Experiment no1): 7; Binding call ([3]; Table 17 Experiment no2): No binding; Mean fluorescence ([3]; Table 17 Experiment no2): 3; Binding call [4]: Binding; Mean fluorescence [4]: 990

B2: MAb2: murine monoclonal anti-LAMP1 antibody, VH SEQ ID NO: 8, VL SEQ ID NO: 12 (antibody, V domains shown)
VH: QVQLQQSAAELARPGASVKMSCKASGYTFTSYTMHWVKQRPGQGLEWIGYFNPSSGYPEYNQKFKDKTTLTADKSSNTAFIQLNSLTSEDSAVYYCSRGYYYGSRGYALDFWGQGASVTVSS
VL: NIVLTQSPVSLAVSLGQRATISCRASESVDINGNTFMHWYQQKPGQSPKLVIYAASNIESGVPARFSGSGSSTDFTFTIDPVEADDVATYYCQQNIEDPWTFGGGTKVEIK
modifications: antibod fragment; antibody fragment
**Q.** B2 was tested. Which EC50 [1] did it give?
**A.** 14 nM

**Q.** What about the Binding call [2] of the same molecule?
**A.** Binding

**Q.** And the Mean fluorescence [2]?
**A.** 629

**Q.** And the Binding call ([3]; Table 17 Experiment no1)?
**A.** No binding

**Q.** What about the Mean fluorescence ([3]; Table 17 Experiment no1) of the same molecule?
**A.** 25

**Q.** What about the Binding call [4] of the same molecule?
**A.** Binding

**Q.** What about the Mean fluorescence [4] of the same molecule?
**A.** 694
